{
  "source": "patent US20040001839A1",
  "about": "“Multimers - isolated molecules comprising epitopes containing sulfated moieties, antibodies to such epitopes, and uses thereof” (priority 2000, published 2004)",
  "molecules": {"B1": {"name": "Y1 tetramers: tetramers formed by incubating Y1-B with streptavidin-PE (protein)", "scFv 1": "MEVQLVESGGGVVRPGGSLRLSCAASGFTFDDYGMSWVRQAPGKGLEWVSGINWNGGSTGYADSVKGRFTISRDNAKNSLYLQMNSLRAEDTAVYYCARMRAPVIWGQGTLVTVSRGGGGSGGGGSGGGGSSELTQDPAVSVALGQTVRITCQGDSLRSYYASWYQQKPGQAPVLVIYGKNNRPSGIPDRFSGSSSGNTASLTITGAQAEDEADYYCNSRDSSGNHVVFGGGTKLTVLGGGGLNDIFEAQKIEWHE", "scFv 2": "B1 scFv 1", "scFv 3": "B1 scFv 1", "scFv 4": "B1 scFv 1", "modifications": "left off: another chain or arm of the molecule; large carriers; small tags and cut ends", "notes": "tetramers formed by incubating Y1-B with streptavidin-PE"}, "B2": {"name": "Y17 scFv: second scFv clone binding platelets and myelogenous leukemia cell lines; SEQ ID NO:203, CDR3 SEQ ID NO:20 (protein, listed as Homo sapiens)", "scFv": "MKYLLPTAAAGLLLLAAQPAMAEVQLVESGGGVVRPGGSLRLSCAASGFTFDDYGMSWVRQAPGKGLEWVSGINWNGGSTGYADSVKGRFTISRDNAKNSLYLQMNSLRAEDTAVYYCARLTHPYFWGQGTLVTVSRGGGGSGGGGSGGGGSSELTQDPAVSVALGQTVRITCQGDSLRSYYASWYQQKPGQAPVLVIYGKNNRPSGIPDRFSGSSSGNTASLTITGAQAEDEADYYCNSRDSSGNHVVFGGGTKLTVLGAAAEQKLISEEDLNGAA"}, "B3": {"name": "Y1 dimer: disulfide dimer of Y1 scFv with a cysteine added on the carboxyl terminus (protein)", "scFv 1": "MEVQLVESGGGVVRPGGSLRLSCAASGFTFDDYGMSWVRQAPGKGLEWVSGINWNGGSTGYADSVKGRFTISRDNAKNSLYLQMNSLRAEDTAVYYCARMRAPVIWGQGTLVTVSRGGGGSGGGGSGGGGSSELTQDPAVSVALGQTVRITCQGDSLRSYYASWYQQKPGQAPVLVIYGKNNRPSGIPDRFSGSSSGNTASLTITGAQAEDEADYYCNSRDSSGNHVVFGGGTKLTVLGGGGCKAK", "scFv 2": "B3 scFv 1"}},
  "key": {"KG-1 cells [1]": {"system": "KG-1 cells", "assay": "FACS of Y1-biotag and Y1-biotag/streptavidin-PE tetramers on KG-1 cells", "assay_type": "binding, human", "procedure": "In a preferred method, tetramers are formed via a biotin/streptavidin association. A novel fermentation construct that is capable of being enzymatically labeled with biotin (referred to herein as Y1-biotag or Y1-B) was created. A sequence that is a substrate for the BirA enzyme was added at the Y1 C-terminus. The BirA enzyme adds a biotin to the lysine residue within the sequence. Y1-biotag was expressed in E. coli. The inclusion body material was isolated and refolded. The purity of the folded protein was >95%, and >100 mg were obtained from a 1-L culture (small-scale, non-optimized conditions). […] Nevertheless, this construct offered the advantage of specific biotinylation in which the binding site of the molecule remains intact. Further, each molecule is labeled by only one biotin—each molecule receives one biotin on the carboxyl end.\nLimiting labeling to one biotin/molecule in a desired location enabled production of tetramers with streptavidin. The tetramers were formed by incubating Y1-B with steptavidin-PE.\nY1-biotag tetramers with streptavidin-PE appear to specifically bind to one of the Y1-reactive cell lines (KG-1). The differential of this reaction, from background binding, was very high, and offered high sensitivity to detect low amounts of receptor. […] Monocytes and granulocytes were positive to a small extent. […]"}, "washed platelets": {"system": "washed platelets", "assay": "Ristocetin-induced agglutination of washed platelets (scFv)", "assay_type": "cell-based, human", "procedure": "Aggregation is determined in PRP due to the presence of thrombotic agents, while agglutination is determined in washed platelets. The effect of Y1 (scFv) on agglutination of washed platelets was tested at various concentrations of Y1. Platelets were pre-incubated with Y1 scFv, Y17 scFv, Y16-scFv, or a control TM-1 scFv for 4 min at 37° C. before being exposed to ristocetin, an inducer of platelet agglutination and aggregation.\nPlatelet concentrate in acid-citrate-dextrose (ACD) was obtained from a blood bank, platelets were isolated, washed once in buffer containing ACD and saline in a ratio of 1:7. The platelets were centrifuged at 800 g for 10 min after each wash and were resuspended in Tyrodes solution (2 mM MgCl2, 137 mM NaCl, 2.68 mM KCl, 3 mM NaH2PO4, 0.1% glucose, 5 mM Hepes and 0.35% albumin, pH 7.35) and count the number of cells.\n(§1) For platelet aggregation studies, platelet rich plasma (PRP) and washed platelets were stirred at 500 rpm at 37° C. in whole blood Lumiaggregometer (Chronolog, Havertown, Pa.). The difference in light transmission through the platelet suspension and suspending medium was taken as 100% aggregation. The effect of Y1 on platelet aggregation was evaluated by addition of different concentration of Y1 before the addition of agonist, and the effect was recorded for four minutes.\nThe effect of Y17-scFv on vWF-dependent agglutination of platelets was tested at different concentrations of Y17."}, "[2]": {"system": "platelet-rich-plasma (PRP)", "assay": "Ristocetin-induced aggregation of platelet-rich plasma (scFv)", "assay_type": "cell-based, human", "conditions": "scFv 38 μg/ml, 100% = ristocetin treatment", "procedure": "The effect of Y1 (scFv) on aggregation of platelet-rich-plasma (PRP) was tested at various concentrations of Y1. PRP was pre-incubated with Y1 scFv, Y17 scFv, or a control sTM-1cFv for 4 min at 37° C. before being exposed to ristocetin, an inducer of platelet agglutination and aggregation. A reversible inhibitory effect was observed when scFv was added to PRP prior to the addition of ristocetin, and it was dose dependent.\nBlood was collected into a tube containing 3.8% sodium citrate. Platelet-rich plasma was prepared by centrifugation at 250×g for 10 minutes.\nas §1"}, "Jurkat cells": {"system": "Jurkat cells", "assay": "FACS binding of Y1-cys monomer and dimer to Jurkat cells", "design": "species or system human", "source_text": "The present invention is directed to Y1 and Y17 multimers prepared by any known method in the art. A preferred method of forming multimers, and especially dimers, employs the use of cysteine residues to form disulfide bonds between two monomers. In this embodiment, dimers are formed by adding a cysteine on the carboxyl terminus of the scFvs (referred to as Y1-cys scFv or Y1 dimer) in order to facilitate dimer formation. After the DNA construct was made (See Example 2D and 6D) and used for transfection, Y1 dimers were expressed in a production vector and refolded in vitro. The protein was analyzed by SDS-PAGE, HPLC, and FACS. […] Thus, the process was repeated and this time, two-liter fermentation batches of the antibodies were run. After expressing Y1-cys in E. coli strain BL21, refolding was done in arginine. Following refolding, the protein was dialyzed and purified by Q-sepharose and gel filtration (sephadex 75). Two peaks were detected by SDS-PAGE (non-reduced) and by gel filtration. The peaks were collected separately and analyzed by FACS. Monomer and dimer binding to Jurkat cells was checked by FACS. […] Conditions for dimer refolding were determined, and material comprising >90% dimers (mg quantities) was produced after subsequent dialysis, chromatographic, and gel filtration steps. […]"}, "KG-1 cells [3]": {"system": "KG-1 cells", "assay": "Binding competition experiments on KG-1 cells (monomer, dimer, Y1 IgG)", "design": "species or system human", "conditions": "as analyzed by radioreceptor assay, ELISA or FACS", "source_text": "To compare the binding of the scFv monomer (also referred to as CONY1) with the Y1 dimer, binding competition experiments were done in vitro on KG-1 cells. In addition, these experiments also compared the binding of the full Y1 IgG to the scFv Y1 monomers. To perform this study, a Y1 IgG was labeled with biotin."}},
  "data": [
    {"molecule": "B1", "values": [
      {"measurement": "reactivity in positive cell lines such as KG-1", "setting": "KG-1 cells [1]; FACS", "result": "at least 100 fold"},
      {"measurement": "increase of the sensitivity of the binding", "setting": "KG-1 cells [1]; complexes with Streptavidin-PE, FACS on KG-1 cells", "result": "at least 100 fold"}
    ]},
    {"molecule": "B2", "values": [
      {"measurement": "inhibition of vWF-dependent platelet agglutination", "setting": "washed platelets; final concentration of 10, 25 or 50 μg/ml, washed platelets, ristocetin", "result": "did not inhibit"},
      {"measurement": "% agglutination", "setting": "washed platelets; scFv 25 μg/ml, 100% = ristocetin treatment", "result": 85, "unit": "%"},
      {"measurement": "% inhibition", "setting": "washed platelets; scFv 25 μg/ml, ristocetin-induced agglutination", "result": 15, "unit": "%"},
      {"measurement": "% aggregation", "setting": "[2]", "result": 100, "unit": "%"}
    ]},
    {"molecule": "B3", "values": [
      {"measurement": "amount needed relative to the monomeric antibody for the same level of staining", "setting": "Jurkat cells", "result": "1/100"},
      {"measurement": "binding relative to the Y1 scFv monomer", "setting": "KG-1 cells [3]", "result": "at least 20 fold"}
    ]}
  ]
}
